Measurements as given in the RNAGym collection of RNA variant scans (doi:10.7554/elife.80360).

B1: CPEB3 Ribozyme (parent)
chain: GGGGGCCACAGCAGAAGCGUUCACGUCGCGGCCCCUGUCAGAUUCUGGUGAAUCUGCGAAUUCUGCUGU

Variants of: B1
Experiment: self-cleavage, relative activity (ratio to wild type); higher = more cleavage; co-transcriptional

Row | Variant | self-cleavage
1 | GGGGGCCACAGCAGAAGCGUUCACGUCGCGGGCCCUGUCAGAUUCUGGUGAAUCGGCGAAUUCUGCUGU [C32G U55G] | 0.218
2 | GGGGGCCACAGCAGAAGCGUUCACGUCGCGGGCCCUGUCAGAUUCUGGUGAAUCCGCGAAUUCUGCUGU [C32G U55C] | 0.258
3 | GGGGGCCACAGCAGAAGCGUUCACGUCGCGGGCCCUGUCAGAUUCUGGUGAAUCUGCGAGUUCUGCUGU [C32G A60G] | 0.267
4 | GGGGGCCACAGCAGAAGCGUUCACGUCGCGGGCCCUGUCAGAUUCUGGUGAAUCUGCGAAUUCUGCUGC [C32G U69C] | 0.839
5 | GGGGGCCACAGCAGAAGCGUUCACGUCGCGGGCCCUGUCAGAAUCUGGUGAAUCUGCGAAUUCUGCUGU [C32G U43A] | 0.238
6 | GGGGGCCACAGCAGAAGCGUUCACGUCGCGGGCCCUGUCAGACUCUGGUGAAUCUGCGAAUUCUGCUGU [C32G U43C] | 0.364
7 | GGGGGCCACAGCAGAAGCGUUCACGUCGCGGGCCCUGUCAGAGUCUGGUGAAUCUGCGAAUUCUGCUGU [C32G U43G] | 0.331
8 | GGGGGCCACAGCAGAAGCGUUCACGUCGCGGUCCCUGUCAGAUUCUGGUGAAUCUGCGGAUUCUGCUGU [C32U A59G] | 0.954
9 | GGGGGCCACAGCAGAAGCGUUCACGUCGCGGUCCCUGUCAGAUUCUGGUGAAUCUGCGUAUUCUGCUGU [C32U A59U] | 0.785
10 | GGGGGCCACAGCAGAAGCGUUCACGUCGCGGUCCCUGUCAGAUUCUGGUGAAUCUGCGCAUUCUGCUGU [C32U A59C] | 0.687
11 | GGGGGCCACAGCAGAAGCGUUCACGUCGCGGGCCCUGUCAGAUUCUGGUGACUCUGCGAAUUCUGCUGU [C32G A52C] | 0.435
12 | GGGGGCCACAGCAGAAGCGUUCACGUCGCGGGCCCUGUCAGAUUCUGGCGAAUCUGCGAAUUCUGCUGU [C32G U49C] | 0.543
13 | GGGGGCCACAGCAGAAGCGUUCACGUCGCGGGCCCUGUCAGAUUCUGGAGAAUCUGCGAAUUCUGCUGU [C32G U49A] | 0.658
14 | GGGGGCCACAGCAGAAGCGUUCACGUCGCGGGCCCUGUCAGAUUCUGGUGAAUCUGCGUAUUCUGCUGU [C32G A59U] | 0.206
15 | GGGGGCCACAGCAGAAGCGUUCACGUCGCGGGCCCUGUCAGAUUCUGGUGAAUCUGCGGAUUCUGCUGU [C32G A59G] | 0.586
16 | GGGGGCCACAGCAGAAGCGUUCACGUCGCGGGCCCUGUCAGAUUCUGGUUAAUCUGCGAAUUCUGCUGU [C32G G50U] | 0.503
17 | GGGGGCCACAGCAGAAGCGUUCACGUCGCGGGCCCUGUCAGAUUCUGGUCAAUCUGCGAAUUCUGCUGU [C32G G50C] | 0.299
18 | GGGGGCCACAGCAGAAGCGUUCACGUCGCGGGCCCUGUCAGAUUCUGGUGAAUCUGCGAAUUCUGCCGU [C32G U67C] | 0.536
19 | GGGGGCCACAGCAGAAGCGUUCACGUCGCGGGCCCUGUCAGAUUCUGGUGAAUCUGCGAAUUCUGCAGU [C32G U67A] | 0.525
20 | GGGGGCCACAGCAGAAGCGUUCACGUCGCGGGCCCUGUCAGAUUCUGGUGAAUCUGCGAAUUCUGCGGU [C32G U67G] | 0.584

Row | Variant | self-cleavage
21 | GGGGGCCACAGCAGAAGCGUUCACGUCGCGGGCCCUGUCAGAUUCUCGUGAAUCUGCGAAUUCUGCUGU [C32G G47C] | 0.683
22 | GGGGGCCACAGCAGAAGCGUUCACGUCGCGGGCCCUGUCAGAUUCUAGUGAAUCUGCGAAUUCUGCUGU [C32G G47A] | 0.673
23 | GGGGGCCACAGCAGAAGCGUUCACGUCGCGGGCCCUGUCAGAUUCUGGUGAAUCUGGGAAUUCUGCUGU [C32G C57G] | 0.263
24 | GGGGGCCACAGCAGAAGCGUUCACGUCGCGGGCCCUGUCAGAUUCUGGUGAAUCUGCAAAUUCUGCUGU [C32G G58A] | 0.44
25 | GGGGGCCACAGCAGAAGCGUUCACGUCGCGGUCCCUGUUAGAUUCUGGUGAAUCUGCGAAUUCUGCUGU [C32U C39U] | 0.937
26 | GGGGGCCACAGCAGAAGCGUUCACGUCGCGGGCCCUGCCAGAUUCUGGUGAAUCUGCGAAUUCUGCUGU [C32G U38C] | 0.235
27 | GGGGGCCACAGCAGAAGCGUUCACGUCGCGGGCCCUGACAGAUUCUGGUGAAUCUGCGAAUUCUGCUGU [C32G U38A] | 0.443
28 | GGGGGCCACAGCAGAAGCGUUCACGUCGCGGGCCCUGGCAGAUUCUGGUGAAUCUGCGAAUUCUGCUGU [C32G U38G] | 0.207
29 | GGGGGCCACAGCAGAAGCGUUCACGUCGCGGGGCCUGUCAGAUUCUGGUGAAUCUGCGAAUUCUGCUGU [C32G C33G] | 0.179
30 | GGGGGCCACAGCAGAAGCGUUCACGUCGCGGGUCCUGUCAGAUUCUGGUGAAUCUGCGAAUUCUGCUGU [C32G C33U] | 0.287
31 | GGGGGCCACAGCAGAAGCGUUCACGUCGCGGGACCUGUCAGAUUCUGGUGAAUCUGCGAAUUCUGCUGU [C32G C33A] | 0.309
32 | GGGGGCCACAGCAGAAGCGUUCACGUCGCGGGCCCUGUCAGAUGCUGGUGAAUCUGCGAAUUCUGCUGU [C32G U44G] | 0.426
33 | GGGGGCCACAGCAGAAGCGUUCACGUCGCGGGCCCUGUCAGAUACUGGUGAAUCUGCGAAUUCUGCUGU [C32G U44A] | 0.385
34 | GGGGGCCACAGCAGAAGCGUUCACGUCGCGGGCCCUGUCAGAUUCUGGUGAAUCUGCGAAUUAUGCUGU [C32G C63A] | 0.3
35 | GGGGGCCACAGCAGAAGCGUUCACGUCGCGGGCCCUGUCAGAUUCGGGUGAAUCUGCGAAUUCUGCUGU [C32G U46G] | 0.522
36 | GGGGGCCACAGCAGAAGCGUUCACGUCGCGGGCCCUGUCAGAUUCAGGUGAAUCUGCGAAUUCUGCUGU [C32G U46A] | 0.492
37 | GGGGGCCACAGCAGAAGCGUUCACGUCGCGGGCUCUGUCAGAUUCUGGUGAAUCUGCGAAUUCUGCUGU [C32G C34U] | 0.363
38 | GGGGGCCACAGCAGAAGCGUUCACGUCGCGGGCCCUGUCAGAUUCUGGUGAAUCUGCGAAUUCUGCUCU [C32G G68C] | 0.768
39 | GGGGGCCACAGCAGAAGCGUUCACGUCGCGGGCCCUGUCAGAUUCUGGUGAAUCUGCGAAUUCUGCUAU [C32G G68A] | 0.808
